Entries after “also recorded” stand apart in the source; their conditions may differ. Primed or numbered codes have the meaning given here. Ends that are not written are not given here. Dansyl′ = dansyl group
Assays:
porcine skin [1] = assay: Skin retention test of skin permeable peptide derivative (fluorescence); format: binding; settings: for Fluorescent intensity (340/520), amount of peptide derivative remaining in porcine skin: 10 minutes incubation with skin, washed ten times; for Level of peptide derivative remaining in the skin (in words): compared to control group / among the 10 peptides
Experimental: To examine skin binding affinity of the derivatives synthesized in Example 3, the porcine skin was reacted with each of the derivatives, and the amount of the peptide dissolved in the surface was measured. In detail, the porcine skin was cut and put in a 1.5 ml tube, and 500 μl of TBS (1% BSA) was added thereto. […] After incubation, washing was performed using TBS (1% BSA) at 12,000 RPM for 1 minute ten times, and the porcine skin in which the reaction was completed was transferred to a 24-well plate. The amount of the peptide remaining on the surface was measured using a victor fluorescence meter (340/520) and compared (Table 4).

porcine skin [2] = assay: Skin permeability test of skin permeable peptide derivative (Franz glass cell, fluorescence); format: in vitro ADME
Experimental: A dansyl group was linked at the C-terminus of each peptide having any one amino acid sequence of SEQ ID NOs. 1 to 10 which were selected in Example 1 so as to synthesize a derivative thereof, and it was intended to examine skin permeability thereof. In detail, each of the peptides was chemically synthesized, and then a dansyl group was added at the C-terminus of each peptide to synthesize a derivative thereof. As a control group, a peptide composed of the amino acid sequence of “[…] NO. 21)” which was prepared by adding a dansyl group at the C-terminus was used. […] Then, each derivative was added at the same concentration to the top of the cell, followed by incubation for 16 hours. After completion of the incubation, the amount of each derivative in the receiver at the bottom was measured using a victor fluorescence meter (340/520) to compare permeation degree (Table 2),

porcine skin [3] = assay: Skin retention test of phage including skin permeable peptide (anti-M13 antibody-HRP, absorbance); format: binding; settings: compared to control group / among the 10 peptides
Text: Skin permeation mainly occurs by the mechanism of a diffusion of a substance dissolved in the components of the skin from the outermost layer to the innermost layers. Through this mechanism, an active ingredient can be effectively delivered throughout the skin. The skin surface is composed of corneocytes and intercellular materials. […] In this case, the product first binds to the skin, and then diffuses into the inner layer. Therefore, binding affinity of the selected phages to the skin was measured to examine the superiority of the peptides.
To measure the amount of the phage binding to the porcine skin, anti-M13 antibody-HRP conjugate was used. […] The porcine skin thus cut was put in a 1.5 ml tube, and 500 μl of TBS (1% BSA) was added thereto. […] Thereafter, they were washed using 1% BSA-containing TBS solution at 12,000 RPM for 1 minute 10 times. Subsequently, 500 μl of TBS solution containing anti-M13 antibody-HRP (Horseradish peroxidase) conjugate-containing 1% BSA was added, followed by incubation for 5 minutes. TBS solution containing 1% BSA was added to the culture, followed by washing at 12,000 RPM for 1 minute 10 times. The residual buffer was completely removed, and TMB solution (Tetramethylbenzidine solution, Amersham) was further added. […] Then, absorbance (450 nm) was measured to determine binding affinity between phage-skin.

Substance | Fluorescent intensity (340/520), amount of peptide derivative remaining in porcine skin (porcine skin [1]) | Level of peptide derivative remaining in the skin (in words) (porcine skin [1]) | Fluorescence intensity (340/520), amount of porcine skin-permeating peptide derivative (porcine skin [2]) | Skin permeability of peptide derivative (in words) (porcine skin [2]) | Skin binding affinity / skin retention of phage (in words) (porcine skin [3])
S3-1 peptide derivative: peptide NQTDHLFSTFIS (SEQ ID NO. 1) with a dansyl group added at the C-terminus (NQTDHLFSTFIS-{Dansyl′}) | 143000 | relatively high level | 42000 | relatively excellent skin permeability | –
S3-2 peptide derivative: peptide NGSLNTHLAPIL (SEQ ID NO. 2) with a dansyl group added at the C-terminus (NGSLNTHLAPIL-{Dansyl′}) | 260000 | relatively high level; also recorded: highest level | 70000 | – | highest skin binding affinity
S3-3 peptide derivative: peptide GGSIAASELEYY (SEQ ID NO. 3) with a dansyl group added at the C-terminus (GGSIAASELEYY-{Dansyl′}) | 47000 | – | 19000 | relatively excellent skin permeability | –
S3-7 peptide derivative: peptide ELKQVVISDINH (SEQ ID NO. 4) with a dansyl group added at the C-terminus (ELKQVVISDINH-{Dansyl′}) | 98000 | relatively high level | 25000 | relatively excellent skin permeability | –
S3-8 peptide derivative: peptide MVRDHPGLSGWT (SEQ ID NO. 5) with a dansyl group added at the C-terminus (MVRDHPGLSGWT-{Dansyl′}) | 100000 | relatively high level | 22000 | relatively excellent skin permeability | –
S3-9 peptide derivative: peptide TSGISINKLPHT (SEQ ID NO. 6) with a dansyl group added at the C-terminus (TSGISINKLPHT-{Dansyl′}) | 47000 | – | 18000 | relatively excellent skin permeability | –
S4-4 peptide derivative: peptide IFAALDYNLGRH (SEQ ID NO. 7) with a dansyl group added at the C-terminus (IFAALDYNLGRH-{Dansyl′}) | 13200 | – | 4400 | – | –
S4-7 peptide derivative: peptide DMKWTLKEWMTH (SEQ ID NO. 8) with a dansyl group added at the C-terminus (DMKWTLKEWMTH-{Dansyl′}) | 37600 | – | 8600 | – | –
S4-9 peptide derivative: peptide QIEKHVYFNASQ (SEQ ID NO. 9) with a dansyl group added at the C-terminus (QIEKHVYFNASQ-{Dansyl′}) | 56000 | – | 16000 | relatively excellent skin permeability | –
S4-10 peptide derivative: peptide TNIPSLSGILMK (SEQ ID NO. 10) with a dansyl group added at the C-terminus (TNIPSLSGILMK-{Dansyl′}) | 25000 | – | 9000 | – | –

Source: patent US9687560B2, “Skin-permeating peptide” (LG Household & Health Care Ltd., priority 2012, dated 2017)
